Data reported in US20170002051A1.

How the values were obtained:
chicken CSF1R (chicken) = experiment: cell-based or functional assay
porcine CSF1R (porcine) = porcine CSF1R (porcine) (UniProt K9IVS4); experiment: cell-based or functional assay

Row | Substance | survival/proliferation of BaF/3 cells expressing chicken CSF1R (Cell TiterGlo), EC50 (chicken CSF1R (chicken)) [µg/mL] | survival/proliferation of BaF/3 cells expressing porcine CSF1R (Cell TiterGlo), EC50 (porcine CSF1R (porcine)) [µg/mL]
1 | recombinant chicken CSF1 (active fragment of chicken CSF-1, expressed in E. coli from pTLW54, refolded) (ligand) | 0.02 | 
2 | recombinant human CSF1 (Sigma 6518) (from UniProt P09603 33-190) (ligand) |  | 0.03
3 | recombinant porcine CSF1 (from UniProt A0A287BPE2 36-189) (ligand) |  | 0.03
